Results on 1 protein are retold here after article PMC4269474 (Cell reports, 2014).

The data set deals with the molecule itself. Put plainly: negative-stain EM single particle reconstruction.

B1: Pyrococcus furiosus Cmr4 (natural protein)
chain: KAYLVGLYTLTPTHPGSGTELGVVDQPIQRERHTGFPVIWGQSLKGVLRSYLKLVEKVDEEKINKIFGPPTEKAHEQAGLISVGDAKILFFPVRSLKGVYAYVTSPLVLNRFKRDLELAGVKNFQTEIPELTDTAIASEEITVDNKVILEEFAILIQKDDKGILESVVKAIEQAFGNEMAEKIKGRIAIIPDDVFRDLVELSTEIVARIRINAETGTVETGGLWYEEYIPSDTLFYSLILVTPRAKDNDMALIKEVLGKINGKYLQIGGNETVGKGFVKVTLKEVTNNGGTHAK
Take B1: the “stoichiometry N” value came to 4.

In general, stoichiometry N refers to a count of units in the complex or per binding partner.
